Reference: article PMC4204861

Target: rEag1-Δeag (rat)

slow phase of inactivation of rEag1-Δeag (10- or 40-sec test pulses), two-electrode voltage clamp in Xenopus oocytes, co-expression (% reduction in current amplitude): 60
Substance: rEag1 eag domain fragment (domain or fragment)
